Data reported in article PMC8059062.

Tests used:
Assay in all cases: co-purification after bacterial coexpression, molar ratio by rpHPLC; (Ca2+)4-CaM copurified with His-GST-tagged FGF NTD fragments; complexes separated on a C-18 column, ratio from peak areas at 220 nm
[1] = target: FGF12ANTD (FGF12A N-terminal domain, aa 1-70) (human) (UniProt P61328)
[2] = target: FGF11ANTD (FGF11A N-terminal domain, aa 1-68) (human) (UniProt Q92914)
[3] = target: FGF13ANTD (FGF13A N-terminal domain, aa 1-66) (human) (UniProt Q92913)
FGF13ANTD (FGF13A N-terminal domain, aa 1-66) (human), sequence (Q92913 other isoform, or with tags, fused parts or gaps): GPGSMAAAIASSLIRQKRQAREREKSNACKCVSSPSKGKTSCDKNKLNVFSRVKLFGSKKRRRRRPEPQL

[4] = target: FGF14ANTD (FGF14A N-terminal domain, aa 1-68) (human) (UniProt Q92915)
FGF14ANTD (FGF14A N-terminal domain, aa 1-68) (human), sequence (Q92915 other isoform, or with tags, fused parts or gaps): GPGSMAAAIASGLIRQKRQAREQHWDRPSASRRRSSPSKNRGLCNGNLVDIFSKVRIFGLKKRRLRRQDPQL

Measured: stoichiometry N ((Ca2+)4-CaM per FGF NTD)

FGF11ANTD (FGF11A N-terminal domain, aa 1-68) (human), sequence (Q92914 other isoform, or with tags, fused parts or gaps): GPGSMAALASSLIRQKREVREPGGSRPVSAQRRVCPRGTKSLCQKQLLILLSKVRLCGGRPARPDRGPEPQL
FGF12ANTD (FGF12A N-terminal domain, aa 1-70) (human), sequence (P61328 other isoform, or with tags, fused parts or gaps): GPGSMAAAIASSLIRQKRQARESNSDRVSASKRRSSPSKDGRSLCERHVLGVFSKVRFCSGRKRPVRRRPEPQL

calmodulin, wild type, full-length (aa 1-148) (from UniProt P0DP23 1-149) (natural protein)
1: all assays above
